In article PMC6859904:
Read-outs that look alike come from different tables or passages of the source.

Measured: enzymatic_activity

VCP/p97: 3D (S13D, S282D, T761D) phosphomimetic
increases: phosphorylation at S13 | phosphorylation at S282 | phosphorylation at T761
